Consider 1 substance from patent US20250215105A1, “ANTI-CD39 ANTIBODY” (BrightPath Biotherapeutics Co., Ltd., priority 2022, published 2025).

The assay concerns the target FcγRIIIa (Human) (UniProt P08637). The experiment in a line: SPR.

Chain of FcγRIIIa (Human) (P08637 17-208 F176V): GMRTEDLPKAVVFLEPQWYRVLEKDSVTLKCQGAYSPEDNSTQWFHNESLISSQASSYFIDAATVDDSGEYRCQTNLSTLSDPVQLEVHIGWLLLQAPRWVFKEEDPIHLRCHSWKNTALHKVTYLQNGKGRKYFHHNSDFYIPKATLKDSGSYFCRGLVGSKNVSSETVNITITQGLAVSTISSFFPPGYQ

For the substance Mogamulizumab, the Kd was found to be 156 nM.
